Laboratory results published in article PMC3789691.

Test system: T1, LexA2 recombinant (Leptospira interrogans serovar Copenhageni), ORF:e6531adf
T1 sequence: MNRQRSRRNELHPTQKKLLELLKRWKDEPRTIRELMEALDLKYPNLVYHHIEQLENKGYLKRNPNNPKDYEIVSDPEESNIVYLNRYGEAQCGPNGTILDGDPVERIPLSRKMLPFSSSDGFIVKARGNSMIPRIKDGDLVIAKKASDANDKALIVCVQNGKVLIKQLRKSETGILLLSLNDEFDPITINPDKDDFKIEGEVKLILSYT
Assay: EMSA
Conditions: Roche DIG Gel Shift Kit binding buffer (composition and pH not given), poly[d(A-T)], 1.55 fmol probe, 20 min on ice; 5% native gel, 0.5x TBE, 4 C

GTTCATTTCTTCTGGATCGTTGCCTATTCATACTACTAAGTACATGATTAGGAAAATTAACTTAAAAAGCAAGAAAAAAATCAACTCGCATCTTGACATTTAAACTTTGTACAAGTATAATTACAATTAAAGCAATGGGACATATTCCCAAAGGAGACATGAATGTCTAAGAACATTAAAGTTACCAAAGAATCGAATACAGGGCTCAATAAAGAATTCTACGATCCTTCCAGAGGAAAGTC (double strand) [lexA2up]
binding: binds
